For assay [1], the target named is hTRβ ligand binding domain (hTRβ LBD), in vitro translated, as used in the GST-GRIP1 binding and peptide competition assays (human) (UniProt P10828). The experiment in a line: peptide competition of hTRβ LBD binding to GST-GRIP1 (563-767) beads.
For assay [2] the target is unchanged. The experiment in a line: GST-GRIP1 (563-767) mutant pull-down of in vitro translated TR.
The target is the same in assay [3]. Description: titration of the amount of GST-GRIP1 fragment in the pull-down of TR; assigned to the fragment with only NR-box 3 functional.
The target in assay [4] is glucocorticoid receptor (GR), full length. Description: peptide competition of GR binding to GRIP1.
Chain of glucocorticoid receptor (GR), full length (P06536 whole entry, the tested form may be a part): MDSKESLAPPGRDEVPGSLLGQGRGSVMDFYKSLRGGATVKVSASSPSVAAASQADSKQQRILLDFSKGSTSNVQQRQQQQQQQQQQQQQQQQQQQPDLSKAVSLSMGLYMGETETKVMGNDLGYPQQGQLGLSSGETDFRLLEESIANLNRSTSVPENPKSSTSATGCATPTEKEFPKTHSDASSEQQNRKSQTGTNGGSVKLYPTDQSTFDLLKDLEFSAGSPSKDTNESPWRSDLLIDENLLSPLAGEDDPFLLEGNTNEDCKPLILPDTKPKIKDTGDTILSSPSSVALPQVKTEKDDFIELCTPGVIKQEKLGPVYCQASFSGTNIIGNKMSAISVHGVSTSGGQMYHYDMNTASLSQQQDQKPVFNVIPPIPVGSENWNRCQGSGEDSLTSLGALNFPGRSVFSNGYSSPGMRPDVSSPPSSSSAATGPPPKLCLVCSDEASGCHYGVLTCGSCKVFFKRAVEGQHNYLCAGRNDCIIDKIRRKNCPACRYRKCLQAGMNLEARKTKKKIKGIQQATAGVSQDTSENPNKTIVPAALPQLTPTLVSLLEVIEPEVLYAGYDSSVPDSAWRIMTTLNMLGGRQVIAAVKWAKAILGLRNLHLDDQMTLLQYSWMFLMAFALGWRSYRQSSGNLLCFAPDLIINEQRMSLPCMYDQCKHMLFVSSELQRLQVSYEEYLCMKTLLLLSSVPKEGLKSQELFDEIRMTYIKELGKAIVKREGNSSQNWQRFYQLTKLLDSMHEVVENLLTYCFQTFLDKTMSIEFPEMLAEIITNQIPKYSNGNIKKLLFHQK
In assay [5] the target is hTRβ ligand binding domain (hTRβ LBD), in vitro translated, as used in the GST-GRIP1 binding and peptide competition assays (human) (UniProt P10828). Description: titration of the amount of GST-GRIP1 fragment in the pull-down of TR.
For assay [6] the target is unchanged. The experiment in a line: titration of the amount of GST-GRIP1 fragment in the pull-down of TR; assigned to the fragment with only NR-box 2 functional.
Assay [7] has the same target. Description: peptide competition (FIG. 11c).
Assay [8] deals with GRIP1 563-767 His6 GST fusion protein (mouse) (UniProt Q61026). The experiment in a line: GST-GRIP1 (563-767) pull-down.
Chain of GRIP1 563-767 His6 GST fusion protein (mouse) (Q61026 other isoform, or with tags, fused parts or gaps): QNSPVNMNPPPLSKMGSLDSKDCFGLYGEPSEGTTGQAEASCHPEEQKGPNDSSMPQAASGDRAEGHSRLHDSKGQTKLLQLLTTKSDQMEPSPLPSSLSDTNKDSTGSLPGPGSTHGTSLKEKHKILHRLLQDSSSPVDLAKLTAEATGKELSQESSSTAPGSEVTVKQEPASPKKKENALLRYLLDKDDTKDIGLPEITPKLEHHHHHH
Assay [9] concerns the target GST-GRIP1 (GRIP1 amino acids 563-1121) (mouse) (UniProt Q61026). Description: GST-GRIP1 pull-down of in vitro translated GR.
Assay [10] concerns the target T1, GRIP1, full-length (mouse, UniProt Q61026 5-1462, limits assumed, [35S]-Met labelled in the pull-down assays (in vitro translated from pSG5-GRIP1)).
T1 construct: Full-length; Unlabelled, expressed from pSG5-GRIP1 in the HeLa transfections; also called [35S]-labeled full-length GRIP1; 35S-labeled GRIP1
Description: GST-hERα LBD pull-down of 35S-GRIP1, 1 µM DES.
Description: (§1) The wild-type and mutant GST-hERα LBDs were expressed in BL21(DE3) cells. […] Cleared extracts containing the GST-hERα LBDs were incubated in buffer alone (50 mM Tris, pH 7.4, 150 mM NaCl, 2 mM EDTA, 1 mM DTT, 0.5% NP-40 and a protease inhibitor cocktail) or with 1 μM of either DES or OHT for 1 hour at 4° C. Extract samples containing thirty pmol of GST-LBD were then incubated with 10 μl glutathioneSepharose-4B beads (Pharmacia) for 1 hour at 4° C. […] Immobilized GSThERα LBDs were incubated for 2.5 hours with 2.5 μl aliquots of crude translation reaction mixture diluted in 300 μl of Tris-buffered saline (TBS). After five washes in TBS containing 0.05% NP-40, proteins were eluted by boiling the beads for 10 minutes in sample buffer.

The target of assay [11] is T1, GRIP1, full-length. Description: GST-hERα LBD pull-down of 35S-GRIP1, no ligand or 1 µM OHT.
Description: as §1
For assay [12], the target named is T2, Human TRβ LBD (His6-E202-D461), purified, liganded with T3 (human, UniProt P10828 202-461).
T2 construct: range 202-461; Protein of the cocrystal; also called hTRβ LBD; hTR LBD
T2 sequence: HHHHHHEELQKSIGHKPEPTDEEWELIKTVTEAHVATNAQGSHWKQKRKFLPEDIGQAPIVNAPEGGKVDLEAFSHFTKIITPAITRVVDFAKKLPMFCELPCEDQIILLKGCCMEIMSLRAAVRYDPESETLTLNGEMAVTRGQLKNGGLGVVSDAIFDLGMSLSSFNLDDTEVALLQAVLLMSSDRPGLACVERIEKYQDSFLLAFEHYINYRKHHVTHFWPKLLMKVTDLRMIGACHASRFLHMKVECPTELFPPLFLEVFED
The experiment in a line: cocrystallisation and X-ray structure, 3.6 Å, T3-liganded.
Description: Possible rotation function solutions were calculated using normalized amplitudes in AMORE from a model of hTRβ LBD with the ligand, T₃, omitted; translation function solutions were subsequently determined using TFFC for the two rotation solutions with the highest correlation coefficients. […] After rigid body refinement of the two hTRβ LBD molecules, electron density maps were calculated.

Assay [13] deals with T3, hTRβ ligand binding domain (hTRβ LBD), in vitro translated, as used in the GST-GRIP1 binding and peptide … (human, UniProt P10828 202-461, limits assumed, [35S]-methionine labelled (in vitro translated)).
T3 construct: domain: LBD; also called TR LBD; TR-LBD
T3 sequence (looked up): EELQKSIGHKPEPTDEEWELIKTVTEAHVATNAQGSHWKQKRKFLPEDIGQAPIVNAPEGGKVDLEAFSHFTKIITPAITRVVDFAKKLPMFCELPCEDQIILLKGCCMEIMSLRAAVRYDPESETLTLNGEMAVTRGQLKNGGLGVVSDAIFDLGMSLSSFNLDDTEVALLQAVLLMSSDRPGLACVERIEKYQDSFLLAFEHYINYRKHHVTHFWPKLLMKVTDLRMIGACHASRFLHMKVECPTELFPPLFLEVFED
The experiment in a line: peptide competition of hTRβ LBD binding to GST-GRIP1 (563-767) beads.
Description: Expression was quantified by phosphoimager analysis (BAS2000, Fuji). […] Binding was performed in the binding buffer described above supplemented with 20 μg/ml BSA and appropriate hormone. […] The reaction was incubated at 4° C. under rotation for 2 hours. In case of competition experiments, the appropriate concentration of peptides were added to the reaction before addition of receptors. […] Beads were washed five times with 200 μl binding buffer+BSA at 4° C. before elution of the bound proteins in 20 μl SDS loading buffer. Eluted beads and input labeled protein were subjected to SDS-PAGE. The fraction of bound nuclear receptors was determined by phosphoimager analysis.

For assay [14], the target named is T1, GRIP1, full-length. The experiment in a line: cell-based or functional assay.

T1 sequence (Q61026 5-1462 limits assumed): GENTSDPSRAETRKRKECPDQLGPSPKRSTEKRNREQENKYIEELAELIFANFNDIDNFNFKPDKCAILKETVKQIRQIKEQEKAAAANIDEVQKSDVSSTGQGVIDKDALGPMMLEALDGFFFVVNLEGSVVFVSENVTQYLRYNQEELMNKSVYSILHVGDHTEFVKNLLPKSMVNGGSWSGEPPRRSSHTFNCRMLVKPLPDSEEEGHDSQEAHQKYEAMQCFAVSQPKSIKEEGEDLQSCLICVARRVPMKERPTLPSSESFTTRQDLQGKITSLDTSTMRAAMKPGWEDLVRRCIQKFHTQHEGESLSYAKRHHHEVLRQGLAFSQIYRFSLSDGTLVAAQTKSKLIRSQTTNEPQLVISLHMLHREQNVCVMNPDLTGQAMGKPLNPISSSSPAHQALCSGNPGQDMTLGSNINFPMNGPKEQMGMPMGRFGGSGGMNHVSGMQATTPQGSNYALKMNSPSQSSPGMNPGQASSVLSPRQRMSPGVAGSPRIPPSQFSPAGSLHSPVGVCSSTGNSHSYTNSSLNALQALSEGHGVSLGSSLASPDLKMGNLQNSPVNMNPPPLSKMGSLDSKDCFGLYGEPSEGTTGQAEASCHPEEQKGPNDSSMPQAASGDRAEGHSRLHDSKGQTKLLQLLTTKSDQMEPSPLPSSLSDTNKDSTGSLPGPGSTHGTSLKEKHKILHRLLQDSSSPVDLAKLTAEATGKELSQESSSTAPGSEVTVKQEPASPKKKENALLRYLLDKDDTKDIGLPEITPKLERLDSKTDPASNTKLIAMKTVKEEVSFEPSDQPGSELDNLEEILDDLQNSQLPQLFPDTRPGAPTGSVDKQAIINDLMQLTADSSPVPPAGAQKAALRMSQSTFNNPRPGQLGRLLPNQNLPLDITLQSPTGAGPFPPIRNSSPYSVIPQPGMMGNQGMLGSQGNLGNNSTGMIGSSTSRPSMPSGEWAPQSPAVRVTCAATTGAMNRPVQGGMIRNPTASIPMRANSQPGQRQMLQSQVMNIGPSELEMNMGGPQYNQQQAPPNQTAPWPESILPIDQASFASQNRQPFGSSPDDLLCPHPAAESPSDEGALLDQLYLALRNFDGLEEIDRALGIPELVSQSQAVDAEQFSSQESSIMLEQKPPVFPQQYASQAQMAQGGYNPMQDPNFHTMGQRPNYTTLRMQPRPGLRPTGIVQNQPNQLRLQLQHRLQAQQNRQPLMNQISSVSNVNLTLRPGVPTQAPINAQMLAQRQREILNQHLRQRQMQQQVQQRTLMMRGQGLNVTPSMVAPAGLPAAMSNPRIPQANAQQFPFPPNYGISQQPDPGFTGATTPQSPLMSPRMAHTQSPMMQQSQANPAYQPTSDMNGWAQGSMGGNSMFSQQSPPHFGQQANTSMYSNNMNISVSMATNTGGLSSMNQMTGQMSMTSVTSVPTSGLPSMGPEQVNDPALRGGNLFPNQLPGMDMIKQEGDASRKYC

Take peptide containing GRIP1 NR-box 1: the concentration giving a half-maximal response (EC50) (as a rule, the midpoint of the concentration-response curve) in assay [1] was 130 µM.

On to “GST-GRIP1 (563-767) His6 with non-functional NR-box 2 (hydrophobic residues of NR-box 2 replaced with alanine) (from UniProt Q61026 563-767)”, for which the loss of TR binding in assay [2] amounted to 50%. The molecule also registered an EC50 in assay [3] of 4 µM.

For “peptide containing the VP16 binding site (FxxAL motif)”, the fold weaker binding than a peptide containing NR-box 3 in assay [4] was determined as 10 fold.

Molecule “GST-GRIP1 (563-767) His6 with non-functional NR-box 3 (hydrophobic residues of NR-box 3 replaced with alanine) (from UniProt Q61026 563-767)” came in with a fold stronger binding of TR for NR-box 2 over NR-box 3 in assay [5] of 4 fold. For the same molecule, the EC50 in [6] turned out to be 1 µM.

Turning to “NR-box 2 peptide with the isoleucine of NR-box 2 replaced by phenylalanine”, the fold reduction of affinity against the NR-box 2 peptide in assay [7] amounted to 10 fold.

In assay [4], “peptide containing the p53 binding site (FxxLW motif)” returned a fold weaker binding than a peptide containing NR-box 3 of 10 fold.

For “glucocorticoid receptor (GR), full length”, the affinity as a fraction of that of TR in assay [8] is 0.2 fold of TR. Also, the fold increase of binding against GRIP1 (563-767) in [9] came to 3 fold.

B1: GST-hERα LBD (282-595) E542K (receptor)
chain: SAGDMRAANLWPSPLMIKRSKKNSLALSLTADQMVSALLDAEPPILYSEYDPTRPFSEASMMGLLTNLADRELVHMINWAKRVPGFVDLTLHDQVHLLECAWLEILMIGLVWRSMEHPGKLLFAPNLLLDRNQGKCVEGMVEIFDMLLATSSRFRMMNLQGEEFVCLKSIILLNSGVYTFLSSTLKSLEEKDHIHRVLDKITDTLIHLMAKAGLTLQQQHQRLAQLLLILSHIRHMSNKGMEHLYSMKCKNVVPLYDLLLKMLDAHRLHAPTSRGGASVEETDQSHLATAGSTSSHSLQKYYITGEAEGFPATV
notes: not shown: GST carrier (pGEX-3X) at the N end and its linker
As to B1, the binding result in [10] is given as “no binding”.

B2: GST-hERα LBD (282-595) V376R (receptor)
chain: SAGDMRAANLWPSPLMIKRSKKNSLALSLTADQMVSALLDAEPPILYSEYDPTRPFSEASMMGLLTNLADRELVHMINWAKRVPGFVDLTLHDQRHLLECAWLEILMIGLVWRSMEHPGKLLFAPNLLLDRNQGKCVEGMVEIFDMLLATSSRFRMMNLQGEEFVCLKSIILLNSGVYTFLSSTLKSLEEKDHIHRVLDKITDTLIHLMAKAGLTLQQQHQRLAQLLLILSHIRHMSNKGMEHLYSMKCKNVVPLYDLLLEMLDAHRLHAPTSRGGASVEETDQSHLATAGSTSSHSLQKYYITGEAEGFPATV
notes: as for B1
Turning to B2, the binding result in assay [11] was “no binding”.

B3: GST-hERα LBD (282-595) K362A (receptor)
chain: SAGDMRAANLWPSPLMIKRSKKNSLALSLTADQMVSALLDAEPPILYSEYDPTRPFSEASMMGLLTNLADRELVHMINWAARVPGFVDLTLHDQVHLLECAWLEILMIGLVWRSMEHPGKLLFAPNLLLDRNQGKCVEGMVEIFDMLLATSSRFRMMNLQGEEFVCLKSIILLNSGVYTFLSSTLKSLEEKDHIHRVLDKITDTLIHLMAKAGLTLQQQHQRLAQLLLILSHIRHMSNKGMEHLYSMKCKNVVPLYDLLLEMLDAHRLHAPTSRGGASVEETDQSHLATAGSTSSHSLQKYYITGEAEGFPATV
notes: as for B1
On to B3, for which the binding result in [10] is “no binding”.

B4: GST-hERα LBD (282-595) I358R (receptor)
chain: SAGDMRAANLWPSPLMIKRSKKNSLALSLTADQMVSALLDAEPPILYSEYDPTRPFSEASMMGLLTNLADRELVHMRNWAKRVPGFVDLTLHDQVHLLECAWLEILMIGLVWRSMEHPGKLLFAPNLLLDRNQGKCVEGMVEIFDMLLATSSRFRMMNLQGEEFVCLKSIILLNSGVYTFLSSTLKSLEEKDHIHRVLDKITDTLIHLMAKAGLTLQQQHQRLAQLLLILSHIRHMSNKGMEHLYSMKCKNVVPLYDLLLEMLDAHRLHAPTSRGGASVEETDQSHLATAGSTSSHSLQKYYITGEAEGFPATV
notes: as for B1
Take B4: in assay [11], the binding result is listed as “no binding”.

B5: GST-hERα LBD (282-595) L539R (receptor)
chain: SAGDMRAANLWPSPLMIKRSKKNSLALSLTADQMVSALLDAEPPILYSEYDPTRPFSEASMMGLLTNLADRELVHMINWAKRVPGFVDLTLHDQVHLLECAWLEILMIGLVWRSMEHPGKLLFAPNLLLDRNQGKCVEGMVEIFDMLLATSSRFRMMNLQGEEFVCLKSIILLNSGVYTFLSSTLKSLEEKDHIHRVLDKITDTLIHLMAKAGLTLQQQHQRLAQLLLILSHIRHMSNKGMEHLYSMKCKNVVPLYDRLLEMLDAHRLHAPTSRGGASVEETDQSHLATAGSTSSHSLQKYYITGEAEGFPATV
notes: as for B1
In the case of B5, the binding result in assay [11] was “no binding”.

Turning to KHKILHRLLQDSS (also called GRIP1 site 2 peptide) [GRIP1 NR-box 2 peptide 686-KHKILHRLLQDSS-698], the binding result in assay [12] is recorded as “binds”.

ENALLRYLLDKDD [GRIP1 NR-box 3 peptide ENALLRYLLDKDD] returned an EC50 in assay [13] of 4 µM.

B6: human thyroid hormone receptor β1 (hTRβ1), full-length 461 amino acids, wild type (receptor, UniProt P10828 1-461, looked up)
chain: MTPNSMTENGLTAWDKPKHCPDREHDWKLVGMSEACLHRKSHSERRSTLKNEQSSPHLIQTTWTSSIFHLDHDDVNDQSVSSAQTFQTEEKKCKGYIPSYLDKDELCVVCGDKATGYHYRCITCEGCKGFFRRTIQKNLHPSYSCKYEGKCVIDKVTRNQCQECRFKKCIYVGMATDLVLDDSKRLAKRKLIEENREKRRREELQKSIGHKPEPTDEEWELIKTVTEAHVATNAQGSHWKQKRKFLPEDIGQAPIVNAPEGGKVDLEAFSHFTKIITPAITRVVDFAKKLPMFCELPCEDQIILLKGCCMEIMSLRAAVRYDPESETLTLNGEMAVTRGQLKNGGLGVVSDAIFDLGMSLSSFNLDDTEVALLQAVLLMSSDRPGLACVERIEKYQDSFLLAFEHYINYRKHHVTHFWPKLLMKVTDLRMIGACHASRFLHMKVECPTELFPPLFLEVFED
modifications: [35S]-Met labelled (in vitro translated)
Consider B6, for which the “T3-dependent reporter gene activity in HeLa cells” value in assay [14] was found to be 5 fold.

In [13], EKHKILHRLLQDS (also called original NR-box 2 peptide) [GRIP1 NR-box 2 peptide EKHKILHRLLQDS] displayed an EC50 of 1.5 µM.
